Measurements reported in article PMC6687723.

What was measured:
[1] = molecular target: androgen receptor N-terminal domain construct NTD_(1-155) (human) (UniProt P10275); assay: NMR titration; 1H,15N-HSQC of 33 µM 15N-labelled NTD construct with 16.5 or 33 µM (0.5 or 1 molar equivalents) unlabelled Hsp70 or Hsp40; 5 °C; 20 mM phosphate pH 7.4, 1 mM TCEP, 10% D2O; no added nucleotides
[2] = molecular target: Hsp70SBD (HSPA1A), truncated form, residues 394-509 (human) (UniProt P0DMV8); assay: fluorescence polarisation; competition: 2 µM Hsp70SBD and 25 nM FAM-LVEALY with varying concentrations of AR protein, 30 min at room temperature; 100 mM Tris, 20 mM KCl, 6 mM MgCl2 pH 7.4; no nucleotides
[3] = molecular target: human Hsp40 (DNAJA2), full length (human) (UniProt O60884); assay: ITC; AR protein (100-200 µM) in the syringe titrated into 10-20 µM chaperone in the cell; 25 °C; 25 mM HEPES, 5 mM MgCl2, 10 mM KCl pH 7.5; one or two-site binding model; no nucleotides
[4] = molecular target: Hsp70 (SBD), residues 394-540 (human) (UniProt P0DMV8); assay: as above

| Substance | I/I0 of NTD (1-155) signals at 1 molar equivalent [1] | IC50 [2] | Kd [3] | stoichiometry N [3] | Kd [4] |
| --- | --- | --- | --- | --- | --- |
| human Hsp70 (HSPA1A), full length (from UniProt P0DMV8 1-641) (natural protein) | 0.3 | – | – | – | – |
| androgen receptor N-terminal domain construct NTD_(1-155) (from UniProt P10275 1-155) (domain or fragment) | – | 1.7 µM | 3.3 µM | 0.49 | 5 µM |
| human Hsp40 (DNAJA2), full length (from UniProt O60884 1-412) (natural protein) | 0.3 | – | – | – | – |
